# Laboratory results reported in the RNAGym collection of RNA variant scans (doi:10.7554/elife.80360).
# B1: HDV Ribozyme (parent)
# chain: GGCCGGCAUGGUCCCAGCCUCCUCGCUGGCGCCGGCUGGGCAACAUUCCGAGGGGACCGUCCCCUCGGUAAUGGCGAAUGGGACCCA
# Variants of: B1
# Test: self-cleavage, relative activity (ratio to wild type); higher = more cleavage; co-transcriptional
row,Variant,self-cleavage
1,GGCCGGCAUGGUCCCAGCCUCCUCGCUGGCGCCGGCUGGGCAACAUUCCGAGGGGACCGUCCCCUUGGUAAUGGCGAAUGGGAACCA [C66U C84A],0.909
2,GGCCGGCAUGGUCCCAGCCUCCUCGCUGGCGCCGGCUGGGCAACAUUCCGAGGGGACCGUCCCCUUGGUAAUGGCGAAUGGGAUCCA [C66U C84U],0.683
3,GGCCGGCAUGGUCCCAGCCUCCUCGCUGGCGCCGGCUGGGCAACAUUCCGAGGGGACCGUCCCCUGGGUAAUGGCGAAGGGGACCCA [C66G U79G],0.772
4,GGCCGGCAUGGUCCCAGCCUCCUCGCUGGCGCCGGCUGGGCAACAUUCCGAGGGGACCGUCCCCUUCGUAAUGGCGAAUGGGACCCA [C66U G67C],1.16
5,GGCCGGCAUGGUCCCAGCCUCCUCGCUGGCGCCGGCUGGGCAACAUUCCGAGGGGACCGUCCCCUGGGUAAUGGCGAAUGGGAACCA [C66G C84A],0.923
6,GGCCGGCAUGGUCCCAGCCUCCUCGCUGGCGCCGGCUGGGCAACAUUCCGAGGGGACCGUCCCCUGGGCAAUGGCGAAUGGGACCCA [C66G U69C],0.898
7,GGCCGGCAUGGUCCCAGCCUCCUCGCUGGCGCCGGCUGGGCAACAUUCCGAGGGGACCGUCCCCUAGGUAAUGGCGAAUGUGACCCA [C66A G81U],0.227
8,GGCCGGCAUGGUCCCAGCCUCCUCGCUGGCGCCGGCUGGGCAACAUUCCGAGGGGACCGUCCCCUUGGUAAUGGCGUAUGGGACCCA [C66U A77U],0.501
9,GGCCGGCAUGGUCCCAGCCUCCUCGCUGGCGCCGGCUGGGCAACAUUCCGAGGGGACCGUCCCCUGGGUAAUGGCGAAUAGGACCCA [C66G G80A],0.338
10,GGCCGGCAUGGUCCCAGCCUCCUCGCUGGCGCCGGCUGGGCAACAUUCCGAGGGGACCGUCCCCUAGGUAACGGCGAAUGGGACCCA [C66A U72C],0.229
11,GGCCGGCAUGGUCCCAGCCUCCUCGCUGGCGCCGGCUGGGCAACAUUCCGAGGGGACCGUCCCCUAGGUAAUGGCGAAUGGUACCCA [C66A G82U],0.36
12,GGCCGGCAUGGUCCCAGCCUCCUCGCUGGCGCCGGCUGGGCAACAUUCCGAGGGGACCGUCCCCUAGGUAAUGGCGAAUGGCACCCA [C66A G82C],0.34
13,GGCCGGCAUGGUCCCAGCCUCCUCGCUGGCGCCGGCUGGGCAACAUUCCGAGGGGACCGUCCCCUGGGUAAUGGCGAAUGGGACACA [C66G C85A],1.02
14,GGCCGGCAUGGUCCCAGCCUCCUCGCUGGCGCCGGCUGGGCAACAUUCCGAGGGGACCGUCCCCUGGGUAAUGGCGAAUGGGACUCA [C66G C85U],0.933
15,GGCCGGCAUGGUCCCAGCCUCCUCGCUGGCGCCGGCUGGGCAACAUUCCGAGGGGACCGUCCCCUUGGUUAUGGCGAAUGGGACCCA [C66U A70U],0.919
16,GGCCGGCAUGGUCCCAGCCUCCUCGCUGGCGCCGGCUGGGCAACAUUCCGAGGGGACCGUCCCCUUGGUCAUGGCGAAUGGGACCCA [C66U A70C],0.712

row,Variant,self-cleavage
1,GGCCGGCAUGGUCCCAGCCUCCUCGCUGGCGCCGGCUGGGCAACAUUCCGAGGGGACCGUCCCCUUGGUGAUGGCGAAUGGGACCCA [C66U A70G],0.903
2,GGCCGGCAUGGUCCCAGCCUCCUCGCUGGCGCCGGCUGGGCAACAUUCCGAGGGGACCGUCCCCUGGGUAAUGGCGCAUGGGACCCA [C66G A77C],0.262
3,GGCCGGCAUGGUCCCAGCCUCCUCGCUGGCGCCGGCUGGGCAACAUUCCGAGGGGACCGUCCCCUUGGUAAUGGCGAAUGGGACCUA [C66U C86U],1.15
4,GGCCGGCAUGGUCCCAGCCUCCUCGCUGGCGCCGGCUGGGCAACAUUCCGAGGGGACCGUCCCCUUGGUAAUGGCGAAUGGGACCGA [C66U C86G],0.772
5,GGCCGGCAUGGUCCCAGCCUCCUCGCUGGCGCCGGCUGGGCAACAUUCCGAGGGGACCGUCCCCUUGGUAUUGGCGAAUGGGACCCA [C66U A71U],0.936
6,GGCCGGCAUGGUCCCAGCCUCCUCGCUGGCGCCGGCUGGGCAACAUUCCGAGGGGACCGUCCCCUGGGUAAUGGUGAAUGGGACCCA [C66G C75U],0.157
7,GGCCGGCAUGGUCCCAGCCUCCUCGCUGGCGCCGGCUGGGCAACAUUCCGAGGGGACCGUCCCCUAGGUAAUGGCGAAAGGGACCCA [C66A U79A],0.696
8,GGCCGGCAUGGUCCCAGCCUCCUCGCUGGCGCCGGCUGGGCAACAUUCCGAGGGGACCGUCCCCUUGGUAAUGGCGAAUGGGCCCCA [C66U A83C],0.298
9,GGCCGGCAUGGUCCCAGCCUCCUCGCUGGCGCCGGCUGGGCAACAUUCCGAGGGGACCGUCCCCUUGGUAAUGGCGAAUGGGACUCA [C66U C85U],0.888
10,GGCCGGCAUGGUCCCAGCCUCCUCGCUGGCGCCGGCUGGGCAACAUUCCGAGGGGACCGUCCCCUUGGUAAUGGCGAAUGGGACGCA [C66U C85G],0.923
11,GGCCGGCAUGGUCCCAGCCUCCUCGCUGGCGCCGGCUGGGCAACAUUCCGAGGGGACCGUCCCCUGGUUAAUGGCGAAUGGGACCCA [C66G G68U],0.812
12,GGCCGGCAUGGUCCCAGCCUCCUCGCUGGCGCCGGCUGGGCAACAUUCCGAGGGGACCGUCCCCUUGGUAAUGGCGAAUGCGACCCA [C66U G81C],0.277
13,GGCCGGCAUGGUCCCAGCCUCCUCGCUGGCGCCGGCUGGGCAACAUUCCGAGGGGACCGUCCCCUGGGUAAUGGCGAAUGGUACCCA [C66G G82U],0.485
14,GGCCGGCAUGGUCCCAGCCUCCUCGCUGGCGCCGGCUGGGCAACAUUCCGAGGGGACCGUCCCCUGGGUAAUGGCGAAUGGCACCCA [C66G G82C],0.0959
15,GGCCGGCAUGGUCCCAGCCUCCUCGCUGGCGCCGGCUGGGCAACAUUCCGAGGGGACCGUCCCCUUGGUAAUGACGAAUGGGACCCA [C66U G74A],0.451
16,GGCCGGCAUGGUCCCAGCCUCCUCGCUGGCGCCGGCUGGGCAACAUUCCGAGGGGACCGUCCCCUGGGUAAUGCCGAAUGGGACCCA [C66G G74C],0.199
